# According to the supplement of paper PMC9170038:
# Test system: MS2 coat protein
# Assay: apparent KD of MS2 coat protein; designed switch direction (-1 OFF switch, 1 ON switch): -1; higher = weaker reporter binding
# Outline: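 SNAP-549-labelled MS2 coat protein was titrated, doubling from 0.7 or 1.5 nM to 3 µM, over designed RNA switches transcribed on Illumina chips by stalled E. coli RNA polymerase. Runs were done without input, with 200 uM small-molecule ligand, or with an oligonucleotide input. Apparent KD is the per-design median over clusters of curve-fitted normalised fluorescence.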
# [1] = input ligand: microRNA oligo, concentration not stated
# [2] = Eterna round: R95, input ligand: FMN 200 uM
# [3] = Eterna round: R95, input ligand: microRNA oligo, concentration not stated
# [4] = Eterna round: R95, input ligand: none
Sequence,apparent KD of MS2 coat protein (input ligand: FMN 200 uM) [nM],apparent KD of MS2 coat protein [1] [nM],apparent KD of MS2 coat protein (input ligand: none) [nM],apparent KD of MS2 coat protein [2] [nM],apparent KD of MS2 coat protein [3] [nM],apparent KD of MS2 coat protein [4] [nM]
"AAAAAAUUGAGAGGAUAUGGUGCCGAAACGGUGCUAGAAGGUUUUAUAAAAAAACAUGAGGAUCACCCAUGUUCAUGUAAAAAA [AK ExNG1-1] (Eterna round: R96, puzzle: Exclusion NG 1)",17.2,16.1,18,,,
AAAAAGCUAGGAUAUACAUGAGGAUCACCCAUGUGAGGGCACCGCGGGCGCGGGACCGGUAGAAGGAGCAAAAA [Exc;s3-III] (puzzle: Exclusion 3),,,,23.5,24.9,29.1
AAAAAGUGAGGAUAUACAUAAGGACCCGGGAGGGAAAUAAAACAUGAGGAUCACCCAUGUAGAAGGCACAAAAA [Exclss2-I] (puzzle: Exclusion 2),,,,20.2,22.2,13.5
"AAAACAAAGCUAGGAUAUUGUCCGAUGUAGCGAUAAGAAGGAGCAGAGUACGUCUGGUCCACAUGAGGAUCACCCAUGUACAAA [Inmaon] (Eterna round: R96, puzzle: Exclusion NG 1)",183,79.6,67.5,,,
AAAACAGUGUAGGAUAUGGCUGGGCUGAAAAUGCUAGAAGGACACACAUGAGGAUCACCCAUGUGACUUCGUGC [Atri] (puzzle: Exclusion 6),,,,,12.5,
"AAAAGACAAGGAUAUACUUGGAAAAUAAAGCUUGAGGAAGUACUUGAGGAUCACCCAAGUAGAAGGUGUAGGCG [Edtiisre] (Eterna round: R97, puzzle: Exclusion 2)",37.7,,31.5,,,
"AAAAGCAAGUAAAGAUUCUACAUGAGGAUCACCCAUGUGCUCGUCUUAUAAAGUACUAUCACGAAAGUGAUAGUACA [Sensor 3, v1 - 43] (puzzle: Sensor v3, turn-off variant 1)",,,,19.4,124,17.6
AAAAUGUAAGGAUAUAGCCGGAACCCAGGGUCAAUACCCGGCUAGAAGGUACAUGAGGAUCACCCAUGUAAGAA [Excls4-VI] (puzzle: Exclusion 4),,,,21.6,18.9,16.5
"AAAAUGUGAGGAUAUCACGGAGCUCCGCGUGACGAAGCUCCUGAGAAGGCACAUGAGGAUCACCCAUGUCCUGU [EX4 A.30] (Eterna round: R97, puzzle: Exclusion 4)",296,,54.4,,,
"AAACCCAGAGGAUAUGCUGACUCCGACAUGAGGAUCACCCAUGUAGCGACUCUUCAUGCAGCAGAAGGUUGAUUUU [Eternabot (L1) Solution 66] (Eterna round: R97, puzzle: Exclusion 5)",235,,271,,,
"AAACCUGAAGUUAGGAUAUGAAGUAUCACUAUACUUCAGAAGGAACUUGAGGAUCACCCAAGUAGCCGUGAGGC [jl-bmx4.4.66 ViennaUCT mod] (Eterna round: R97, puzzle: Brourd's mod of Exclusion 4)",110,,23,,,
AAAGAAACAGGAUAUGUAGGCUGCGACAUGAGGAUCACCCAUGUGUCGGUAUACAGUCCUAUAGAAGGGUUAUGAC [Tieder] (puzzle: Exclusion 5),,,,,13.1,
"AAAGACCUGGAGGAUAUCAGACACACCAGCGUCUGAGAAGGCCAGACAUGAGGAUCACCCAUGUAGGGUUCUCC [EX6 B.22] (Eterna round: R97, puzzle: Exclusion 6)",104,,29.4,,,
AAAGAGCGAGGAUAUACAUGAGGAUCACCCAUGUAAAGAUGCAUGGUCUGAACGUCUGGUAGAAGGCGUAUGAA [Diatater] (puzzle: Exclusion 3),,,,,98.7,
"AAAGGACGAGGAUAUACAUGAGGAUCACCCAUGUAAGAAGCAUAAUAAAAUAACUUAUGUAGAAGGCGUCCAAA [Mat - Exclusion 3 - Eli mod - D94] (Eterna round: R96, puzzle: Exclusion 3)",,17,,,,
"AAAGGGCGUGUGAGGAUAUCGACCCGACUUCCAGUCGAGAAGGCACAUGAGGAUCACCCAUGUGAUGACAGCGA [BmEX4 B.8] (Eterna round: R97, puzzle: Brourd's mod of Exclusion 4)",38.4,,16.2,,,
AAAGGUGAGUAGGAUAUCCGCGCACGAAUAAAAGGAGAAGGACUUACAUGAGGAUCACCCAUGUAAGGUGGUAA [Ationbi] (puzzle: Exclusion 6),,,,19.4,11.7,15.1
"AAAUAACAAGCAAGAUCCUACAUGAGGAUCACCCAUGUGCUCGUCUUGUAAAGUACUAUCACGAAAGUGAUAGUACA [Sensor 3, v1 - 12] (puzzle: Sensor v3, turn-off variant 1)",,,,23.4,219,23
"AAAUAACAAGCGAGAUCCUACAUGAGGAUCACCCAUGUGCUCGUCUUAUUAAGUACUAUCACGAAAGUGAUAGUACA [Mat - Sensor v3 - turn-off var 1 - Eli Mod - D66] (puzzle: Sensor v3, turn-off variant 1)",,,,18.4,239,18.4
"AAAUAAUAGAUAAAAUAAUACAUGAGGAUCACCCAUGUGGGAUGCUGAGGGUGAUACAAGCUUUUUGCUCGUCUUAU (puzzle: Sensor v3, turn-off variant 1)",,,,212,19.7,245
"AAAUAGAAAGGAUAUACAGGCAUCCUUACCAGAGCGAGCUCACAUGAGGAUCACCCAUGUAGAAGGUUCAUAGC [EX2 C.17] (Eterna round: R97, puzzle: Exclusion 2)",34.9,,31.8,,,
"AAAUAGCAUGAGGAUAUUGGACUGUAUUCAGUACGAGAAGGCAUGACAUGAGGAUCACCCAUGUUUUGUUGGGA [EX6 #6] (Eterna round: R97, puzzle: Exclusion 6)",222,,67.5,,,
"AAAUAGCGAGGAUAUACUGUAUACGAAAGUAUACGCAUGGCACAUGAGGAUCACCCAUGUAGAAGGCGCUAUAA (Eterna round: R97, puzzle: Exclusion 2)",43.4,,22.3,,,
"AAAUAGCUUGAGGAUAUUGGAUAGGAUUUAGUGCGAGAAGGCAAGACAUGAGGAUCACCCAUGUUGUGUUGGGA [EX6 #13] (Eterna round: R97, puzzle: Exclusion 6)",48.4,,36.4,,,
AAAUCCGCUGAGGAUAUUAUGACUGAGAGGUCAUGAGAAGGCGGUACAUGAGGAUCACCCAUGUCUAUGGGCAA [Ex-6 Malc#27] (puzzle: Exclusion 6),,,,377,292,553
"AAAUCGGAGGAGGAUAUUGUACAGGAAACGGUGCGAGAAGGUUUCACAUGAGGAUCACCCAUGUCAAAUAGCGA [EX6 #57] (Eterna round: R97, puzzle: Exclusion 6)",21.3,,21.2,,,
"AAAUCGGUAGAGGAUAUUGUACAGGAAACGGUGCGAGAAGGUUACACAUGAGGAUCACCCAUGUUAAAUAGCGA [EX6 #54] (Eterna round: R97, puzzle: Exclusion 6)",17.9,,18.4,,,
